Assay results as given in US20080124280A1.

Key:
[1] = target: purified αVβ3 integrin (UniProt P06756); test: antibody at 2 µg/ml added to 2 µg purified αVβ3 before [125I]-T4; native gel, band intensity
[2] = target: purified αVβ3 integrin (UniProt P06756); test: antibody at 1 µg/ml added to 2 µg purified αVβ3 before [125I]-T4; native gel, band intensity
[3] = target: purified αVβ3 integrin (UniProt P06756); test: antibody at 4 µg/ml added to 2 µg purified αVβ3 before [125I]-T4; native gel, band intensity
[4] = target: purified αVβ3 integrin (UniProt P06756); test: antibody at 8 µg/ml added to 2 µg purified αVβ3 before [125I]-T4; native gel, band intensity
[5] = target: purified αVβ3 integrin (UniProt P06756); test: antibody at 8 µg/ml added to purified αVβ3 30 min before [125I]-T4; native gel; the legend's value differs from the 59% of paragraph 377

purified αVβ3 integrin, sequence (P06756 31-1048 limits assumed, form in doubt, chain 1 of 2): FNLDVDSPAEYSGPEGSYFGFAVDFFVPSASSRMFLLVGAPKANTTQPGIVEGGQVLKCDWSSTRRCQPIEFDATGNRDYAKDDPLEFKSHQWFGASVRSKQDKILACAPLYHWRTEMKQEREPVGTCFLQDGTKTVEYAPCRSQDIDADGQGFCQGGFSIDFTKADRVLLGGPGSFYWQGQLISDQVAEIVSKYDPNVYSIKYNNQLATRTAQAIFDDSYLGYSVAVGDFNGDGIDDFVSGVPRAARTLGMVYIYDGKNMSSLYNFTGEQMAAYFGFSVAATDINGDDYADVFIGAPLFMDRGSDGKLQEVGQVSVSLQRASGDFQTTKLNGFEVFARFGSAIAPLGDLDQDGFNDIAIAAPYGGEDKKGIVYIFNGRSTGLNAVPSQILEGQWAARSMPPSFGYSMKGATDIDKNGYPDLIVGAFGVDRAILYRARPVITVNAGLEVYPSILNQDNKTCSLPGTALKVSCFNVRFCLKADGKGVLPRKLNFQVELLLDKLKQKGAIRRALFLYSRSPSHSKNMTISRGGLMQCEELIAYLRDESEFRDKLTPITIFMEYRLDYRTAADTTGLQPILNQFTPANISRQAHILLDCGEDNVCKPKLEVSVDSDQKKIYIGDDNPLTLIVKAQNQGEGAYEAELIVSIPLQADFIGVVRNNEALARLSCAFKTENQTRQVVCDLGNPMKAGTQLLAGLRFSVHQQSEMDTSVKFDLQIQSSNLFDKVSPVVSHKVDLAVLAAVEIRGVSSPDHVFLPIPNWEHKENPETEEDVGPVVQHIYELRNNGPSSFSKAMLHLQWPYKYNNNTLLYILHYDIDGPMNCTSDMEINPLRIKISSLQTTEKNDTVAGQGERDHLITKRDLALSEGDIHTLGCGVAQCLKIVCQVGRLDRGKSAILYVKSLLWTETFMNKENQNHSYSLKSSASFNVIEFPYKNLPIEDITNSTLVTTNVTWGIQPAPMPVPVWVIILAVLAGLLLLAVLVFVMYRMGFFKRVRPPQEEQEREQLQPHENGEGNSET
purified αVβ3 integrin, sequence (P05106 27-788 limits assumed, form in doubt, chain 2 of 2, further chain): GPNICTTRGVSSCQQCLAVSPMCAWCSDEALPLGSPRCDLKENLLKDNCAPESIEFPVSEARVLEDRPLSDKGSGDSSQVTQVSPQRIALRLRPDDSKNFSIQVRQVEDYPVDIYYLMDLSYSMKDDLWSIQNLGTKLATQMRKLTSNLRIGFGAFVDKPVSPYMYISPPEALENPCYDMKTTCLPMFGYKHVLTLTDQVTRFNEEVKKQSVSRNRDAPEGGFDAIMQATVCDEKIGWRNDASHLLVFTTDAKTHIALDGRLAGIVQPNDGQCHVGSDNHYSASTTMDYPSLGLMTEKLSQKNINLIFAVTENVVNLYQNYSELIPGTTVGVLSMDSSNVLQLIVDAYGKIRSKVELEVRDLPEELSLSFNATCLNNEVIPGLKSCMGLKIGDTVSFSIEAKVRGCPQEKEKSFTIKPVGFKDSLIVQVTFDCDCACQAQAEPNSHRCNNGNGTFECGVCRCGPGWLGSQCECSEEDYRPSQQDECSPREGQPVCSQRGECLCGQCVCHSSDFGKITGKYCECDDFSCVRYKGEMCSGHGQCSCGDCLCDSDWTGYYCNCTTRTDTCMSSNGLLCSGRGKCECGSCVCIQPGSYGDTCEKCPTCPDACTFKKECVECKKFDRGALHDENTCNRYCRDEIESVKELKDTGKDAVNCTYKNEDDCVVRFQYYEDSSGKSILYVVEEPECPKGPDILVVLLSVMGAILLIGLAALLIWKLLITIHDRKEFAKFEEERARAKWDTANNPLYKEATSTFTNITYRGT

percent decrease of band intensity (integrin-[125I]T4 complex) [1] [%] | percent reduction of integrin-[125I]T4 complex formation [2] [%] | percent decrease of band intensity (integrin-[125I]T4 complex) [3] [%] | percent decrease of band intensity (integrin-[125I]T4 complex) [4] [%] | percent reduction of T4 binding to αVβ3 [5] [%] | percent reduction of T4 binding to αVβ3 [1] [%] | percent reduction of T4 binding to αVβ3 [2] [%] | percent reduction of T4 binding to αVβ3 [3] [%] | percent reduction of T4 binding to αVβ3 [4] [%] | Substance
64 | 52 | 63 | 81 | – | – | – | – | – | monoclonal antibody LM609 to αVβ3
– | – | – | – | 58 | 46 | 20 | 47 | 59 | monoclonal antibody SC7312 to αVβ3
